From patent US20230167174A1 (Novartis, published 2023)

T1: human TREM2 on CHO-hDAP12-hTREM2 cells (human, UniProt Q9NZC2 19-230)
T1 sequence: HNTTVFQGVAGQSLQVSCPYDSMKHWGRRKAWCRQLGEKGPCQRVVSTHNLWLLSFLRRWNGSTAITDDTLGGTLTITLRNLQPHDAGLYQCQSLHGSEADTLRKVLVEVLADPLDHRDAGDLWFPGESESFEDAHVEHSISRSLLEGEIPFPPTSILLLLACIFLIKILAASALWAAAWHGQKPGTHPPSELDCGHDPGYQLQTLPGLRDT

T2: hTREM2 IgSF-hTREM1 stalk-hFc (human, UniProt Q9NZC2 19-132; Q9NP99 135-205, limits assumed)
T2 construct: domain: IgSF;domain: stalk region; also called hTREM2 IgSF-T1 stalk-hFc-bio; hTREM2 IgSF-hTREM1 stalk-hFc-bio
T2 sequence (looked up): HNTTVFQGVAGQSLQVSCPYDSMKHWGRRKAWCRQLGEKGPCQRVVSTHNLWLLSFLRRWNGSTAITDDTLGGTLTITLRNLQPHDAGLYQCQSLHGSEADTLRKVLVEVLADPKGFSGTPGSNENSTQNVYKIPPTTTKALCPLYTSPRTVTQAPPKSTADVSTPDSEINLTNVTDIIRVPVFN

T3: TREM2 (isoform 3) on transfected HEK293 cells (human)
T3 construct: also called BC032362
T3 chain: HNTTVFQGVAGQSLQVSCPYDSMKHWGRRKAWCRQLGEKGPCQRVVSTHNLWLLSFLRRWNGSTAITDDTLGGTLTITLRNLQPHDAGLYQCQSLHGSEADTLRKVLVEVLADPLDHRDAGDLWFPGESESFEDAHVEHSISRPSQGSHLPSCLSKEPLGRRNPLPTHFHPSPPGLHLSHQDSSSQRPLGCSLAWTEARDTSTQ

B1: MOR044698 (antibody, V domains shown)
VH: QVQLVQSGAEVKKPGASVKVSCKASGYTFTGYHMSWVRQAPGQGLEWMGVINPVSGNTVYAQKFQGRVTMTRDTSISTAYMELSRLRSEDTAVYYCARIPSYTYAFDYWGQGTLVTVSS
VL: DIQMTQSPSSLSASVGDRVTITCRASQDISNYLAWYQQKPGKAPKLLIYRASSLQSGVPSRFSGSGSGTDFTLTISSLQPEDFATYYCFQYRHMPSQTFGQGTKVEIKR
notes: also called MOR44698; MOR44698A
B2: MOR042596 (antibody, human IgG1, kappa, L234A L235A, V domains shown)
VH: B1 VH
VL: DIQMTQSPSSLSASVGDRVTITCRASQDISNYLAWYQQKPGKAPKLLIYRASSLQSGVPSRFSGSGSGTDFTLTISSLQPEDFATYYCQQHGHSPTTFGQGTKVEIKR
notes: full IgG; also called MOR42596

How the values were obtained:
[1] = target: T4, cyTREM2 ECD (19-174)-APP-Avi (cynomolgus); test: SET
T4 construct: range 19-174

[2] = target: T1, human TREM2 on CHO-hDAP12-hTREM2 cells; test: cell-based or functional assay
[3] = target: T4, cyTREM2 ECD (19-174)-APP-Avi; test: SPR, label free kinetics
[4] = target: T2, hTREM2 IgSF-hTREM1 stalk-hFc; test: recombinant protein binding
[5] = target: T3, TREM2 (isoform 3) on transfected HEK293 …; test: plasma membrane protein cell array, HEK293
Description: Human HEK293 cells were grown on glass slides and fixed. Test antibodies were added at 2 µg/ml. Slides were subsequently incubated with an AlexaFluor647 labelled anti-human IgG Fc detection antibody, followed by fluorescence imaging.

[6] = target: T4, cyTREM2 ECD (19-174)-APP-Avi; test: SPR (Biacore)

Row | Binder | Kd [1] | Internalization compared to parental after 6 h [2] | Kd [3] | S/BG [4] | binding result [5] | Kd [6]
1 | B1 | 0.039 nM | 1.5 fold | 0.039 nM | > 20 | binds | –
2 | B2 | – | – | – | – | – | 6.6 nM
